Results taken from US20240182536A1 (MURAL ONCOLOGY, published 2024).
Positions count from the first letter of the chain named. Numbers in names are those of the source.

T1: IL-18 receptors on HEK-Blue IL-18 reporter cells (UniProt Q13478 19-541; O95256 20-599, limits assumed)
T1 sequence (looked up) 1: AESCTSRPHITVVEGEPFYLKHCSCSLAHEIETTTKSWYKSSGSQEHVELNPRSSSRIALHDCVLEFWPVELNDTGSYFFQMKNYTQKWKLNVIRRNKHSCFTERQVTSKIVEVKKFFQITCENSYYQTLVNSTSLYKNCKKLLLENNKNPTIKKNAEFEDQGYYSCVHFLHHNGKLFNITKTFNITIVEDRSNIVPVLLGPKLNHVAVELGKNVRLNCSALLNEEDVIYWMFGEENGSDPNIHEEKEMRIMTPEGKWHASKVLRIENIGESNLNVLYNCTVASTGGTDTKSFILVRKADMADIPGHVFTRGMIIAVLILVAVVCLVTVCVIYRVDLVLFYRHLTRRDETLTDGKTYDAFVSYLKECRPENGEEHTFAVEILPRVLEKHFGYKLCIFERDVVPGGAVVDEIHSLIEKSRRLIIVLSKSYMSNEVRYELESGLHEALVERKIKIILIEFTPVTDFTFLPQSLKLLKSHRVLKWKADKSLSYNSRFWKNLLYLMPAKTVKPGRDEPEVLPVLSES
T1 sequence (looked up) 2: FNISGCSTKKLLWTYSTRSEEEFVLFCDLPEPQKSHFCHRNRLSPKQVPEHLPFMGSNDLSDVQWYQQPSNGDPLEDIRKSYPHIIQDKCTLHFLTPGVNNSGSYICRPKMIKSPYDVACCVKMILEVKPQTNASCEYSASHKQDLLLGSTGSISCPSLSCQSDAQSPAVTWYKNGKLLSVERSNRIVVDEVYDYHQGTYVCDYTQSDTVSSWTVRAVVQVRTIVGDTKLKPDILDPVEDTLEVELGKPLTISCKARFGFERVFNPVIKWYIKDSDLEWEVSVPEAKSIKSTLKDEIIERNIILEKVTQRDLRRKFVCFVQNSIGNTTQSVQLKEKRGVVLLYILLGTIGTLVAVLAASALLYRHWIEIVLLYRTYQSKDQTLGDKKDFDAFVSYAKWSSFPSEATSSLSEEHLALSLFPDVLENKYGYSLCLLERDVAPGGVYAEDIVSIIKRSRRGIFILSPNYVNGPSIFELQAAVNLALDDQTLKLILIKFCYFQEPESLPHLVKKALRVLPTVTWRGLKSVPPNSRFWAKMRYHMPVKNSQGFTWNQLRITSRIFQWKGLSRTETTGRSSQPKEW

T2: human IL-18 binding protein (human, UniProt O95998 31-194)
T2 sequence (looked up): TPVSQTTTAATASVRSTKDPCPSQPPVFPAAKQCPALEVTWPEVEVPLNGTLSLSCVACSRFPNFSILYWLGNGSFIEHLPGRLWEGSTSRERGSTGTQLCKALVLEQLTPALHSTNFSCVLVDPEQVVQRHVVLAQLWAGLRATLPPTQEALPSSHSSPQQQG

T3: IL-18 receptors on HEK-Blue IL-18 reporter cells (UniProt Q13478 19-541; O95256 20-599, limits assumed)
T3 sequence (looked up) 1: T1 sequence (looked up) 1
T3 sequence (looked up) 2: T1 sequence (looked up) 2

T4: interleukin 18 binding protein (IL-18BP) (UniProt O95998 31-194)
T4 sequence (looked up): T2 sequence (looked up)

B1: yeast display IL-18 variant K53S, S55K (ligand)
chain: YFGKLESKLSVIRNLNDQVLFIDQGNRPLFEDMTDSDMRDNAPRTIFIISMYSDKQPRGMAVTISVKSEKISTLSSENKIISFKEMNPPDNIKDTKSDIIFFQRSVPGHDNKMQFESSSYEGYFLASEKERDLFKLILKKEDELGDRSIMFTVQNED
B2: yeast display IL-18 variant K53T, S55P (ligand)
chain: B1 chain with S53T, K55P
B3: yeast display IL-18 variant K53T, S55A (ligand)
chain: B1 chain with S53T, K55A
B4: yeast display IL-18 variant K53S, S55G (ligand)
chain: B1 chain with K55G
B5: IL-18 variant K53G, S55I, R104K, P107Y (ligand)
chain: B1 chain with S53G, K55I, R104K, P107Y
B6: IL-18 variant S36E, D37E, D40V, N41S, K53Y, S55V, H109Y (ligand)
chain: B1 chain with S36E, D37E, D40V, N41S, S53Y, K55V, H109Y
B7: IL-18 variant K8R, L9G, S10C, K53G, S55A, R104G (ligand)
chain: B1 chain with K8R, L9G, S10C, S53G, K55A, R104G
B8: IL-18 variant T34S, S36Y, D37N, D40E, N41Q, K53Y, S55I (ligand)
chain: B1 chain with T34S, S36Y, D37N, D40E, N41Q, S53Y, K55I
B9: IL-18 variant K53D, S55L (ligand)
chain: B1 chain with S53D, K55L
B10: IL-18 variant L15I, K53H, S55M (ligand)
chain: B1 chain with L15I, S53H, K55M
B11: IL-18 variant T34E, S36P, D40A, N41G, K53T, S55R (ligand)
chain: B1 chain with T34E, S36P, D40A, N41G, S53T, K55R
B12: IL-18 variant K53H, S55H, N87D, H109I (ligand)
chain: B1 chain with S53H, K55H, N87D, H109I
B13: IL-18 variant K53H, S55Y (ligand)
chain: B1 chain with S53H, K55Y
B14: IL-18 variant T34N, S36N, D40E, N41G, K53S, S55Q, R104N, H109Y (ligand)
chain: B1 chain with T34N, S36N, D40E, N41G, K55Q, R104N, H109Y
B15: IL-18 variant S36F, N41E, K53W (ligand)
chain: B1 chain with S36F, N41E, S53W, K55S
B16: IL-18 variant S36Q, D40T, K53P, S55L (ligand)
chain: B1 chain with S36Q, D40T, S53P, K55L

Molecular target: T1, IL-18 receptors on HEK-Blue IL-18 …
Test: cell-based or functional assay

Binder	HEK-Blue activity, No BP, DF-10000	HEK-Blue activity, No BP, DF-100,000	HEK-Blue activity, No BP, DF-1,000,000
B1	2	1.35	0.5
B2	1.42	0.59	0.16
B3	1.8	0.96	0.29
B4	1.71	0.91	0.3

Molecular target: T2, human IL-18 binding protein
Test: cell-based or functional assay

Binder	HEK-Blue activity, +100 nM BP, DF-10000	HEK-Blue activity, +100 nM BP, DF-100,000	HEK-Blue activity, +100 nM BP, DF-1,000,000	Ratio (-BP/+BP), DF-10000	Ratio (-BP/+BP), DF-100,000	Ratio (-BP/+BP), DF-1,000,000
B1	2.03	1.41	0.53	0.98	0.96	0.95
B2	1.53	0.65	0.21	0.93	0.91	0.79
B3	1.85	0.95	0.32	0.97	1	0.89
B4	1.83	0.97	0.27	0.93	0.95	1.1

Molecular target: T3, IL-18 receptors on HEK-Blue IL-18 …
Test: cell-based or functional assay

Binder	HEK-Blue activity, No BP, DF-10000	HEK-Blue activity, No BP, DF-100,000	HEK-Blue activity, No BP, DF-1,000,000
B5	0.1	0.09	0.09
B6	0.09	0.09	0.09
B7	0.1	0.13	0.1
B8	0.09	0.09	0.09
B9	0.11	0.09	0.09
B10	0.11	0.1	0.09
B11	0.09	0.1	0.09
B12	0.11	0.1	0.09
B13	0.09	0.09	0.09
B14	0.09	0.09	0.08
B15	0.09	0.1	0.09
B16	0.09	0.13	0.08

Molecular target: T4, interleukin 18 binding protein (IL-18BP)
Test: cell-based or functional assay

Binder	HEK-Blue activity, +100 nM BP, DF-10000	HEK-Blue activity, +100 nM BP, DF-100,000	HEK-Blue activity, +100 nM BP, DF-1,000,000	Ratio (-BP/+BP), DF-10000	Ratio (-BP/+BP), DF-100,000	Ratio (-BP/+BP), DF-1,000,000
B5	0.11	0.09	0.09	0.99	1	0.95
B6	0.09	0.1	0.1	1.03	0.92	0.89
B7	0.12	0.14	0.1	0.88	0.92	1.03
B8	0.09	0.09	0.12	0.98	0.96	0.75
B9	0.1	0.09	0.09	1.02	1.03	1.01
B10	0.12	0.1	0.08	0.9	0.99	1.02
B11	0.1	0.09	0.09	0.98	1.01	0.96
B12	0.1	0.1	0.1	1.1	0.96	0.88
B13	0.1	0.1	0.11	0.91	0.99	0.8
B14	0.09	0.09	0.09	0.95	1.01	0.95
B15	0.09	0.1	0.09	1	1.01	0.91
B16	0.09	0.09	0.09	1.09	1.44	0.9
